Assay results published in patent US11623951B2, “Antibodies to R-spondin 3” (National Health Research Institutes, priority 2017, dated 2023).
“Also recorded” adds a separate entry of the source.

How the values were obtained:
RSPO3 / RNF43 binding = molecular target: T1, RSPO3 / RNF43 binding (Homo sapiens, UniProt Q9BXY4); assay: Competitive ELISA of RSPO3 binding to RNF43; conditions: RNF43-His 200 ng/ml, antibody 20 μg/ml
T1 construct: purchased Peprotech (RSPO3); Sino Biological (RNF43-His) 16108-H08H (RNF43)
T1 sequence (Q9BXY4 22-272): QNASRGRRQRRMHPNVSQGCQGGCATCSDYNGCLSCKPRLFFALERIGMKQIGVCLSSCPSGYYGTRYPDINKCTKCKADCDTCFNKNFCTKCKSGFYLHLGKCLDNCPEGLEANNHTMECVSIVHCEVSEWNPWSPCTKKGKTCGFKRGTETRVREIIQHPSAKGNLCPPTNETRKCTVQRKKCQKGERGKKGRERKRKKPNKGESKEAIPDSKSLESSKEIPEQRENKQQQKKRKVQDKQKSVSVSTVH
Text: FIG. 10 is a set of graphs showing competitive binding of RSPO3 to LGR5 or RNF43 by different α-RSPO3 antibodies. To exam whether different α-RSPO3 antibodies might compete with the binding of RSPO3 to LGR5 or RNF43, recombinant hRSPO3 was coated on a plate. (A) Recombinant LGR5 (22-560)-Fc was conjugated with biotin to facilitate detection. Biotinylated LGR5 was then respectively mixed with various concentrations of either α-RSPO3 antibodies or isotype control Ab and applied to RSPO3-coated wells. Streptavidin-HRP was then added to detect bound biotinylated LGR5; and (B) Mixtures of recombinant His-tagged RNF43 and different α-RSPO3 antibodies, respectively, were applied to each RSPO3-coated wells. Mouse anti-His tag antibody-HRP was then added for detection of bound RNF43. […] The colorimetric reaction was then stopped by 2N HCL and the optical density at 450 nm of each well was determined immediately.
To exam whether different α-RSPO3 antibodies might compete with the binding of RSPO3 to RNF43, mixtures of recombinant Hig-tagged RNF43 (RNF43-His16108-H08H, Sino Biological) at 200 ng/ml and 20 μg/ml of different α-RSPO3 antibodies, respectively, were applied to each well. […] The colorimetric reaction was then stopped by 2N HCL and the optical density at 450 nm of each well were determined immediately.

DLD-1 cells = assay: Wound healing (migration) assay in DLD-1 cells; type: cell-based, human; conditions: 100 μg/ml antibody, Wnt3a 20 ng/ml and RSPO3 50 ng/ml
Procedure: FIG. 11 is a graph showing the effects of different α-RSPO3 antibodies on wound healing in the DLD-1 cell model. The percentages of wound closure were calculated and shown in the bar graph.
DLD-1 cells were seeded at 40000 cells per well in Culture-Insert 2 Well (ibidi, Martinsried, Germany) with RPMI medium containing 10% FBS for 16 hours. After removing the culture insert, cells were either treated with 100 μg/ml control human IgG1 antibodies or 100 μg/ml anti-RSPO3 antibodies in low serum (0.5%) medium in the presence of 20 ng/ml Wnt3a and 50 ng/ml RSPO3. Samples were then subjected to live cell image time lapse microscopy system (Leica AF6000 LX) to observe migration of DLD-1 cells. Three positions of each well under 10× objective lens were selected at the beginning and phase images of these positions were acquired by Zyla 4.2 sCMOS camera every 30 minutes for up to 60 hours.

[1] = system: NCI-H2030 lung cancer xenograft; assay: RSPO^high NCI-H2030 lung cancer CDX model; type: in vivo, nude mice; conditions: for terminal average tumor volume: 25 mg/kg i.v. once a week, Day 29; for body weight loss: mouse, in vivo
Procedure: FIG. 14 is a graph showing the efficacy of hB1 in a RSPO^high NCI-H2030 Lung Cancer CDX model. Mice were treated with hB1 or 131R010 at 25 mg/kg, or control (vehicle) once a week for 4 weeks. On Day 28 of treatment, 7 mice from each of the vehicle, 131R010 and hB1 groups were sacrificed for tumor collection at 24 hours after the […] dose. Data are expressed as mean±SEM. On Day 51 of treatment, 7 mice from each of the Carboplatin, hB1, 131R010 and carboplatin in combination groups were sacrificed for tumor collection. Data are expressed as mean±SEM.
To evaluate the preclinical in vivo efficacy, RSPO^high NCI-H2030 lung cancer cell-derived xenograft (CDX) model was used in this study. Female nude mice were inoculated subcutaneously at the right flank with one fragment of NCI-H2030 (5*10^6) for tumor development. When the average tumor size reached about 250 mm^3, tumor-bearing mice were randomly allocated into groups and 25 mg/kg of the test articles, 50 mg/kg of carboplatin or vehicle (isotype IgG) were injected intravenously (i.v.) every week for 4 weeks. Tumor volume was measured by caliper every three days (one day dosing and 2 days off) and using the formula: TV=0.5×a×b^2, where a and b is the long and short diameters of the tumor, respectively. Animals were sacrificed due to tumor size reaching humane endpoints, and the last value of the tumor volume was carried forward until the end of the study.
Statistical analyses were including the mean and standard error, are provided for the tumor volume. Since the two treatment regimens were independent, for comparison between each treatment against control, an independent sample was performed. All data was analyzed using 2way ANOVA multiple comparisons by Prism. P<0.05 was considered to be statistically significant.

B1: hB1: humanized α-RSPO3 antibody derived from murine clone B1; VH SEQ ID NO: 14, VL SEQ ID NO: 16 (antibody, V domains shown)
VH: QIQLQESGPGLVKPSESLSLTCSVTGYSITSGYYWNWIRQFPGNGLEWMGYISYDGTNNYNPSLKDRISITRDTSKNQFFLKLNSVTAADTATYYCSVLLIQYFNIWGKGTTVTVSS
VL: DIQMTQSPSSLSASVGERVTITCRTSESVNNFLAWFHQKPGKSPKLLVYHAKTLADGVSSRFSGSGSGTQYSLKINSLQPEDFGNYYCQHFWSIPWTFGGGTKLEIKR
modifications: Heavy chain variable region; Light chain variable region
competition with RNF43 for binding to RSPO3 (RSPO3 / RNF43 binding): did not interfere with the binding between RNF43 and RSPO3
wound healing activity of DLD-1 cells (DLD-1 cells): able to inhibit wound healing activity
terminal average tumor volume [1]: 1124±471.8 mm^3
body weight loss [1]: no severe body weight loss
antitumor activity (in words) ([1]; single agent or with carboplatin 50 mg/kg): significant antitumor activity; also recorded: better anti-cancer efficacy than rosmantuzumab

B2: rosmantuzumab (antibody, chains of the INN, looked up, V domains shown)
VH: QVQLVQSGAEVKKPGASVKVSCKASGYTFTDYSIHWVRQAPGQGLEWIGYIYPSNGDSGYNQKFKNRVTMTRDTSTSTAYMELSRLRSEDTAVYYCATYFANNFDYWGQGTTLTVSS
VL: DIQMTQSPSSLSASVGDRVTITCKASQSVDYDGDSYMNWYQQKPGKAPKLLIYAASNLESGVPSRFSGSGSGTDFTLTISPVQAEDFATYYCQQSNEDPLTFGAGTKLELK
competition with RNF43 for binding to RSPO3 (RSPO3 / RNF43 binding): did not interfere with the binding between RNF43 and RSPO3
wound healing activity of DLD-1 cells (DLD-1 cells): able to inhibit wound healing activity
terminal average tumor volume [1]: 1327.4±194.3 mm^3
body weight loss [1]: no severe body weight loss
